# Target: T1, Abp1 SH3 (ABP1_YEAST), P15891
# T1 chain: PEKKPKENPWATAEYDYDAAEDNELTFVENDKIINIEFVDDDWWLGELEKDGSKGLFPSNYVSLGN
# Assay: SPOT array
row,Binder,"normalised SPOT signal, Boehringer light units (BLU); mean over the file's lines of this peptide"
1,LILGKMVKWGPLRP [YOL072W 276-289],404
2,LLRENTTILDPSKP [YKR056W 387-400],177
3,LLQQQRVDVVPPKP [YML113W 123-136],140
4,LIKSILNRSVPKRP [YAL017W 1330-1343],324
5,LESNSMRGYQPFRP [YBR136W 2029-2042],250
6,LLRRNPSPSIVKP [YFL021W 256-268],1070
7,LKPENILLSAPDKP [YJL141C 497-510],7.9
8,LKKTLKKKKTPKKP [YKR084C 74-87],163
9,LKSFFTNPNKKRP [YOR098C 23-35],323
10,LHLEKMKPDLKKP [YOL078W 925-937],88.4
11,LHGNTNAPTPLRP [YPR099C 85-97],69
12,LLKKGVNPKAKRP [YNL061W 602-614],54.3
13,LISKWTIMPHPNRP [YOL008W 135-148],1030
14,LHYHVIGSNGPAKP [YGR198W 51-64],60.8
15,LLPPPPPPPYQRP [YPL063W 179-191],111
16,LKYFGKALENPTRP [YCR012W 192-205],117
17,LEVVKSLYDRPLKP [YGR232W 85-98],63.6
18,LLQEDSRIMPPLKP [YBR133C 322-335],185
19,LESSPKKHVSPSRP [YAL028W 269-282],184
20,LNALNVNSHAPTKP [YOR059C 245-258],171
21,LIARNVRTFKPFKP [YNL213C 178-191],176

row,Binder,"normalised SPOT signal, Boehringer light units (BLU); mean over the file's lines of this peptide"
1,LEVPERIPEVLRP [YFL004W 802-814],14.9
2,LITRLRVPTIKRP [YOR147W 33-45],748
3,LLHQYDDPLMFKP [YDL180W 44-56],19.6
4,LLRLRPRPLLLRP [YKR047W 79-91],249
5,LLEAIDAIEQPSRP [YBR118W 226-239],41.3
6,LIPVQELPLLLKP [YML010W 362-374],74.2
7,LEVVDGSPYGYRP [YLL015W 4-16],0
8,LIDPRVDPILMRP [YER101C 153-165],75.9
9,LGIDKRSSTKPTKP [YLR054C 309-322],188
10,LMMPVMVPTVYKP [YPR013C 154-166],188
11,LKSLNLPQLPPPKP [YDR266C 568-581],40.9
12,LKLSNISHHSPVKP [YBR050C 283-296],103
13,LKKSGKLPTWVKP [YLR193C 56-68],40.8
14,LKERANKPKRKRP [YFR013W 73-85],157
15,LFDGPENVINPLKP [YDR392W 289-302],35
16,LIPELPSPKDLRP [YMR049C 412-424],81.6
17,LLSKVHDPNIPLRP [YGR184C 639-652],135
18,LHLIEILPKLIKP [YMR110C 95-107],110
19,LFGSGIGEEAPTKP [YJL095W 372-385],118
20,LGKVVAVKIIPKKP [YKL048C 110-123],185
21,LHQYLSETYGPTKP [YGL174W 3-16],39

# Reference: publication PMC314469, “Protein Interaction Networks by Proteome Peptide Scanning” (PLoS Biology, 2004)
